The text below walks through data of US20190077860A1 (EISAI R AND D MANAGEMENT, published 2019).

Positions count from the first letter of the chain named. In names and notes the source's numbering stands.

The chains are these.
T1: human EphB1 extracellular region-SEAP-His protein (human, UniProt P54762 18-540)
T1 construct: extracellular domain; also called hEphB1-SEAP-His
T1 sequence (looked up): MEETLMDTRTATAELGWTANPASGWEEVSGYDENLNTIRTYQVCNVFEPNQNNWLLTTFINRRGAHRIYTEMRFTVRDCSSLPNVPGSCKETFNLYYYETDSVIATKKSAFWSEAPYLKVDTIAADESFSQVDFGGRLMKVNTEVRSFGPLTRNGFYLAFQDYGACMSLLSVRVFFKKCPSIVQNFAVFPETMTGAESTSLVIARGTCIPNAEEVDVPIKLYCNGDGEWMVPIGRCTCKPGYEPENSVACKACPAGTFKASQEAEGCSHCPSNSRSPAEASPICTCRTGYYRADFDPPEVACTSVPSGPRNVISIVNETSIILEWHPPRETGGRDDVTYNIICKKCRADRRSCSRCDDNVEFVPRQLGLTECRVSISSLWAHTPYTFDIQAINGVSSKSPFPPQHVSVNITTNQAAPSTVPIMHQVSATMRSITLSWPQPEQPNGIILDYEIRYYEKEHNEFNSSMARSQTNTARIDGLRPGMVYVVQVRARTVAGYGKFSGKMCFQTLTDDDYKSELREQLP

B1: antibody A (antibody, mouse IgG1, kappa, V domains shown)
VH: QIQLVQSGPELKKPGETVKISCKASGYTFTDYSMHWVKQAPGKGLKWMGWINTETGEPTYADDFKGRFAFSLETSASTAYLQINNLKNEDTATYFCARIPLYYYGSRYWYFDVWGAGTTVTVSS
VL: DIQMTQSPASLSVSVGETVTITCRASENIYRNLAWYQQKQGKSPQLLVYAATNLADGVPSRFSGSGSGTQYSLKINSLQSEDFGSYYCQHFWGTPWTFGGGTKLEIKR
notes: mouse IgG1 heavy chain, kappa light chain; purified from hybridoma supernatant; also called anti-EphA4 monoclonal antibody; antibody A-IgG
B2: humanized antibody No. 76 (antibody, human IgG1, kappa)
heavy: QVQLVQSGSELKKPGASVKVSCKASGYTFTDYSMHWVRQAPGQGLKWMGWINTETGEPTYAQGFTGRFVFSLDTSVSTAYLQISSLKAEDTAVYYCARIPLYYYGSRYWYFDVWGQGTTVTVSSASTKGPSVFPLAPSSKSTSGGTAALGCLVKDYFPEPVTVSWNSGALTSGVHTFPAVLQSSGLYSLSSVVTVPSSSLGTQTYICNVNHKPSNTKVDKRVEPKSCDKTHTCPPCPAPPAAAPSVFLFPPKPKDTLMISRTPEVTCVVVDVSHEDPEVQFNWYVDGVEVHNAKTKPREEQFNSTFRVVSVLTVVHQDWLNGKEYKCKVSNKGLPAPIEKTISKTKGQPREPQVYTLPPSREEMTKNQVSLTCLVKGFYPSDIAVEWESNGQPENNYKTTPPMLDSDGSFFLYSKLTVDKSRWQQGNVFSCSVMHEALHNHYTQKSLSLSPG
light: DIQMTQSPSSLSASVGDRVTITCRASENIYRNLAWYQQKPGKAPKLLVYAATNLADGVPSRFSGSGSGTDYTLTISSLQPEDFATYYCQHFWGTPWTFGQGTKVEIKRTVAAPSVFIFPPSDEQLKSGTASVVCLLNNFYPREAKVQWKVDNALQSGNSQESVTEQDSKDSTYSLSSTLTLSKADYEKHKVYACEVTHQGLSSPVTKSFNRGEC
notes: human Ig kappa; also called L1-4/HA2
B3: humanized antibody No. 78 (antibody, human IgG1, kappa)
heavy: B2 heavy with Q62D, G63D, T65K
light: B2 light
notes: human Ig kappa; also called L1-4/HK2
B4: humanized antibody No. 75 (antibody, human IgG1, kappa)
heavy: B2 heavy with K46E
light: B2 light
notes: constant region: human IgG1 CH1 and hinge, human IgG2 CH2 and CH3 with V234A, G237A, no C-terminal Lys; human Ig kappa; also called L1-4/HA1
B5: humanized antibody No. 81 (antibody, human IgG1, kappa)
heavy: B2 heavy with K46E
light: B2 light with V48L, P80S
notes: human Ig kappa; also called L1-5/HA1
B6: humanized antibody No. 69 (antibody, human IgG1, kappa)
heavy: B2 heavy with V2I, Q62D, G63D, T65K
light: B2 light
notes: human Ig kappa; also called L1-4/HK4
B7: humanized antibody No. 86 (antibody, human IgG1, kappa)
heavy: B2 heavy with V2I, Q62D, G63D, T65K
light: B2 light with V48L, P80S
notes: human Ig kappa; also called L1-5/HK4
B8: humanized antibody No. 85 (antibody, human IgG1, kappa)
heavy: B2 heavy with Q62D, G63D, T65K
light: B2 light with V48L, P80S
notes: human Ig kappa; also called L1-5/HK2
B9: humanized antibody No. 83 (antibody, human IgG1, kappa)
heavy: B2 heavy with V2I
light: B2 light with V48L, P80S
notes: human Ig kappa; also called L1-5/HA4
B10: humanized antibody No. 67 (antibody, human IgG1, kappa)
heavy: B2 heavy with V2I
light: B2 light
notes: human Ig kappa; also called L1-4/HA4
B11: humanized antibody No. 82 (antibody, human IgG1, kappa)
heavy: B2 heavy
light: B2 light with V48L, P80S
notes: human Ig kappa; also called L1-5/HA2
B12: humanized antibody No. 84 (antibody, human IgG1, kappa)
heavy: B2 heavy with K46E, Q62D, G63D, T65K
light: B2 light with V48L, P80S
notes: human Ig kappa; also called L1-5/HK1
B13: humanized antibody No. 77 (antibody, human IgG1, kappa)
heavy: B2 heavy with K46E, Q62D, G63D, T65K
light: B2 light
notes: human Ig kappa; also called L1-4/HK1

As a reminder, the Kd is the equilibrium constant for the complex coming apart. Higher therefore signals weaker binding. A word on the koff: it is the first-order rate constant of dissociation. What is called kon is a measure of how fast the partners come together. The IC50 is the concentration needed to halve the response being measured. Read a high IC50 as lower potency.

T2 sequence (P54764 20-547): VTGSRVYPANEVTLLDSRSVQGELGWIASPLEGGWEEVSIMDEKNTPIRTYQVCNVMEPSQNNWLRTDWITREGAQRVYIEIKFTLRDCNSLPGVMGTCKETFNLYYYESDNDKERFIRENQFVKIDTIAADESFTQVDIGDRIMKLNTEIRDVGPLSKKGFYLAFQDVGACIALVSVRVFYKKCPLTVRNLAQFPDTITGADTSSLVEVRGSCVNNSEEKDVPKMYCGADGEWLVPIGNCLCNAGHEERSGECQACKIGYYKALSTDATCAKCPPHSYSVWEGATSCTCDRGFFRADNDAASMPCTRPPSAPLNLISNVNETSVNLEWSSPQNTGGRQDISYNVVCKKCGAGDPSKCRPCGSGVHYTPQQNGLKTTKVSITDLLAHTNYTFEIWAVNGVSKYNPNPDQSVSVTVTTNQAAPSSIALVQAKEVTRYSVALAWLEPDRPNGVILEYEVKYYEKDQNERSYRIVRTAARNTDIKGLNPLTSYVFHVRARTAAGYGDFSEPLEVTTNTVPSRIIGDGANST

The first test addresses T2, human EphA4 extracellular region-SEAP-His protein (human, UniProt P54764 20-547).
T2 construct: also called hEphA4-SEAP-His
As to the kind of experiment: SPR, Ab captured. On the procedure:
The binding affinity of each anti-EphA4 monoclonal humanized antibody obtained in Example 16 for human EphA4 was determined by surface plasmon resonance (SPR) using Biacore T200 (GE Healthcare). First, for the assay of antibody A, a rat anti-mouse IgG₁ antibody produced with a conventional method by immunizing rat with mouse IgG₁ antibody was immobilized on sensor chip CM5. The immobilization of the rat anti-mouse IgG1 antibody on sensor chip CM5 was performed by the amine coupling method using N-hydroxysuccinimide (NHS) and N-ethyl-N′-(3-dimethylaminopropyl)carbodiimide hydrochloride (EDC). Ethanolamine was used in blocking (the sensor chip and the reagents for immobilization were all manufactured by GE Healthcare). The antibody was diluted with a buffer solution for immobilization (10 mM sodium acetate, pH 4.5) and immobilized on the sensor chip according to the protocol attached to Biacore T200. For the assay of each humanized monoclonal antibody, a protein A chip (GE Healthcare, 29-1383-03) was used. Antibody A or the humanized monoclonal antibody was diluted with a running buffer solution HBS-EP (GE Healthcare), injected onto only flow cell 2 for 120 seconds, and captured (captured amount: approximately 30 to 60 RU). Subsequently, human EphA4 extracellular region-SEAP-His protein serially diluted in the range of 50, 16.7, 5.6, 1.9, and 0.6 nM using HBS-EP was sequentially added from the lower toward higher concentration sides without regeneration operation. Binding reaction curves were sequentially observed at the time of the addition (association phase, for 120 sec) and after the completion of the addition (dissociation phase, for 900 sec). After the completion of each observation, the sensor chip was regenerated by the addition of 3 M MgCl₂ (for 60 sec) or 10 mM Glycine-HCl pH 1.5 (for 30 sec). The obtained binding reaction curves were subjected to fitting analysis with 1:1 binding models using software BIA evaluation attached to the system to calculate the affinity (KD=kd/ka) for human EphA4 (Table 6).
B1 had a Kd of 0.6 nM, a koff of 0.00025 s⁻¹ and a kon of 420000 M⁻¹ s⁻¹.
On to B2, for which the Kd came out at 1 nM, the koff was 0.00034 s⁻¹ and the kon worked out at 330000 M⁻¹ s⁻¹.
The molecule B3 registered a Kd of 1.1 nM, a koff of 0.00039 s⁻¹ and a kon of 340000 M⁻¹ s⁻¹.
B4 showed a Kd of 1.2 nM, a koff of 0.00042 s⁻¹ and a kon of 380000 M⁻¹ s⁻¹.
Turning to B5, the Kd is 1.6 nM, the koff turned out to be 0.00054 s⁻¹ and the kon was determined as 340000 M⁻¹ s⁻¹.
B6 had a Kd of 1.1 nM, a koff of 0.00037 s⁻¹ and a kon of 340000 M⁻¹ s⁻¹.
For B7, in that order: 1.5 nM, 0.00046 s⁻¹ and 310000 M⁻¹ s⁻¹.
Molecule B8 yielded a Kd of 1.6 nM, a koff of 0.0005 s⁻¹ and a kon of 310000 M⁻¹ s⁻¹.
For B9, in that order: 1.9 nM, 0.00054 s⁻¹ and 290000 M⁻¹ s⁻¹.
For B10, the Kd was 1.1 nM, the koff amounted to 0.00035 s⁻¹ and the kon was 330000 M⁻¹ s⁻¹.
The corresponding values for B11 are 1.6 nM, 0.00046 s⁻¹ and 290000 M⁻¹ s⁻¹.
The corresponding values for B12 are 1.7 nM, 0.00056 s⁻¹ and 350000 M⁻¹ s⁻¹.
Turning to B13, the affinity, expressed as Kd, was 1.4 nM; the off-rate (koff) was 0.00058 s⁻¹; the kon was found to be 410000 M⁻¹ s⁻¹.

The target in the next test is T1, human EphB1 extracellular …. As to the kind of experiment: ELISA. As to the method: Each well of a 96-well plate (Nunc) was coated with a rabbit anti-6-His antibody (Bethyl Laboratories). Each well was […] After washing with 0.05% Tween 20/PBS (Nacalai Tesque) three times, the SEAP-His protein of human EphA1, EphA2, EphA3, EphA4, EphA5, EphA6, EphA7, EphA8, EphA10, EphB1, EphB2, EphB3, EphB4, or EphB6 was added (final concentration: 1 nM) to each well and incubated at room temperature for 1 hour. After washing three times, the humanized antibody was added to each well and incubated at room temperature for 1 hour. After washing three times, a horseradish peroxidase-labeled donkey […] antibody (Jackson ImmunoResearch Laboratories) was added thereto and incubated at room temperature for 1 hour. After washing three times, TMB Microwell Peroxidase Substrate System (Kirkegaard & Perry Laboratories (KPL)) was added to each well. After confirmation of moderate color development, an equal amount of a reaction stopping solution (1N H₂SO₄, Wako Pure Chemical Industries) was added to each well. The absorbance at 450 nm was read using a microplate reader (Thermo Fisher Scientific).
On to B2, for which the “A450 as % of hEphA4-SEAP-His” value was 4.9%.
Consider B3, for which the “A450 as % of hEphA4-SEAP-His” value was 5%.
For B4, the “A450 as % of hEphA4-SEAP-His” value amounted to 4.4%.
B5: the “A450 as % of hEphA4-SEAP-His” value worked out at 4.9%.
With B6, the “A450 as % of hEphA4-SEAP-His” value amounted to 5.6%.
B7: the “A450 as % of hEphA4-SEAP-His” value was 5.7%.
B8: the “A450 as % of hEphA4-SEAP-His” value is 5%.
As to B9, the “A450 as % of hEphA4-SEAP-His” value was found to be 5.6%.
Take B10: the “A450 as % of hEphA4-SEAP-His” value turned out to be 4.6%.
On to B11, for which the “A450 as % of hEphA4-SEAP-His” value was found to be 5.4%.
For B12, the “A450 as % of hEphA4-SEAP-His” value amounted to 5.2%.
With B13, the “A450 as % of hEphA4-SEAP-His” value came out at 4.6%.

A further test has as its target T2, human EphA4 extracellular …. As to the kind of experiment: competition ELISA, competitor human Ephrin A5-Fc. As to the method:
Each anti-EphA4 monoclonal humanized antibody obtained in Example 16 was evaluated for its inhibitory activity against the binding between human EphA4 and its human ligand according to the following steps. Each well of a 96-well plate (Nunc) was coated with an anti-alkaline phosphatase antibody (Thermo Fisher Scientific). After incubation overnight at 4° C., each well was blocked with 1% BlockAce (DS Pharma Biomedical) at room temperature for 1 hour. After washing with 0.05% Tween 20/PBS (Thermo Fisher Scientific) three times, the human EphA4 extracellular region-SEAP-His protein obtained by the method of Example 2 was added (final concentration: 10 nM) to each well and incubated at room temperature for 1 hour. After washing three times, a ligand and each serially diluted humanized antibody of antibody A (0, 0.003, 0.01, 0.03, 0.1, 0.3, 1, 3, 10, 30, 100, 300, 1000, and 3000 nM) were added to each well. The ligand used was biotinylated human Ephrin A5-Fc chimera (R&D Systems, final concentration: 0.7 nM). After incubation at room temperature for 1 hour and subsequent washing three times, horseradish peroxidase-labeled streptavidin (GE Healthcare) was added thereto and incubated at room temperature for 1 hour. After washing three times, a TMBZ (3,3′,5,5′-tetramethylbenzidine, Sigma-Aldrich) solution was added to each well and incubated at room temperature for 2 minutes. An equal amount of a reaction stopping solution (1N H₂SO₄, Wako Pure Chemical Industries) was added to each well. The absorbance at 450 nm was read using a microplate reader (PerkinElmer).
On the technique in general: ELISA stands for enzyme-linked immunosorbent assay.
Regarding B2, the IC50 came out at 2.9 nM.
For B3, the IC50 was determined as 2.8 nM.
With B4, the IC50 worked out at 2.9 nM.
On to B5, for which the IC50 was determined as 4 nM.
B6 had an IC50 of 3.1 nM.
Molecule B7 came in with an IC50 of 4 nM.
Consider B8, for which the IC50 turned out to be 4 nM.
On to B9, for which the IC50 is 3.7 nM.
The molecule B10 showed an IC50 of 4.4 nM.
The molecule B11 returned an IC50 of 4.1 nM.
For the molecule B12, the IC50 turned out to be 4.6 nM.
The same measure, in the same setting: with B13 the figure was 3.5 nM.
